According to paper PMC6525239, “Hexameric NuMA:LGN structures promote multivalent interactions required for planar epithelial divisions” (Nature Communications, 2019):

What was measured:
[1] = molecular target: T1, LGN^1–409 (TPR domain of LGN) (human); experiment: SEC; analytical SEC, Superdex-200 Increase 3.2/300; LGN and NuMA variants mixed in equimolar amounts (20 μM; LGN^TPR:NuMA^PEPT 1:2); 20 mM Tris-HCl pH 8.0, 0.150 M NaCl, 5% glycerol, 1 mM DTT; fractions checked by SDS-PAGE
T1 sequence (P81274 whole entry, looked up): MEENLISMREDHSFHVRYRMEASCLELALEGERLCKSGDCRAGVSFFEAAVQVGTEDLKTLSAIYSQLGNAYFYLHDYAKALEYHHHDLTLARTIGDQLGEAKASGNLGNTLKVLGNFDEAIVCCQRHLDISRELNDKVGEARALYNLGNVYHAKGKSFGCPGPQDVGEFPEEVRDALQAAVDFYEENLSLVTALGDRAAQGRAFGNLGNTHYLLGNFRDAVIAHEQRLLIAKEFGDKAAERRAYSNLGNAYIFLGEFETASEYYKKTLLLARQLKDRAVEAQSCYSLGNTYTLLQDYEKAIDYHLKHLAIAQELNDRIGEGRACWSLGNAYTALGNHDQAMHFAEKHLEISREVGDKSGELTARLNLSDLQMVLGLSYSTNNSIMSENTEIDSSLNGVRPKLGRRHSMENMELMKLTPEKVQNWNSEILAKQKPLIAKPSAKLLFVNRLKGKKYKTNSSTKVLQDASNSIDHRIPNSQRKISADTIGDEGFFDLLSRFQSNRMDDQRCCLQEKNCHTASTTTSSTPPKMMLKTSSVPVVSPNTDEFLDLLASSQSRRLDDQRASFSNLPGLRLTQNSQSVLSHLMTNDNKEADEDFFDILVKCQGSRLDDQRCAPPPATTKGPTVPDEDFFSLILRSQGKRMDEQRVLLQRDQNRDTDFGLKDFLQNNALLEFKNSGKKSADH

[2] = molecular target: LGN^TPR-ΔOLIGO (LGN^13–350) (human); experiment: SEC-MALS; static light scattering (SLS) on a Viscotek GPCmax/TDA with two TSKgel G3000PWxl columns in series; 75 μl of purified sample at about 1.5–2 mg/ml
[3] = molecular target: the molecule itself; experiment: as above
LGN^13–409 (human) = molecular target: T2, LGN^13–409 (human); experiment: SEC + SEC-MALS; SEC and SLS assays on a battery of truncated LGN and NuMA mutants (Fig. 1c, d)
T2 sequence (P81274 whole entry, looked up): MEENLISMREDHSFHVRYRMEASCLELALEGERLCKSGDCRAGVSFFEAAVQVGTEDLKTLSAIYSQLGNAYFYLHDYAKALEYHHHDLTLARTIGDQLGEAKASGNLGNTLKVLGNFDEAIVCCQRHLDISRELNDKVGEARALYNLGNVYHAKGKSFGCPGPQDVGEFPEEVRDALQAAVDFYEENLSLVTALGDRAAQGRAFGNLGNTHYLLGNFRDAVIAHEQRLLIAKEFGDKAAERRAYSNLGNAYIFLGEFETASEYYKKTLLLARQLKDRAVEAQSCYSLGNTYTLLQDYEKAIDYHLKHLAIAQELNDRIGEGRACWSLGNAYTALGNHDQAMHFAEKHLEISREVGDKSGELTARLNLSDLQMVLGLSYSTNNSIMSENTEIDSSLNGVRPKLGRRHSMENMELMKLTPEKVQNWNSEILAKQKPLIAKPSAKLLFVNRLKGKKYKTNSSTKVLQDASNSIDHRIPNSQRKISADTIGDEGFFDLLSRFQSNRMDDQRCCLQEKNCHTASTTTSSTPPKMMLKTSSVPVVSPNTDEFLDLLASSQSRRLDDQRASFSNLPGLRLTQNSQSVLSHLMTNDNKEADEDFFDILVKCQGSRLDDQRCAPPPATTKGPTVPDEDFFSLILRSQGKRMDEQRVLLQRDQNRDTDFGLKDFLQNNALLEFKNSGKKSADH

LGN^1–350 (human) = molecular target: T3, LGN^1–350 (human); experiment: as above
T3 sequence (P81274 whole entry, looked up): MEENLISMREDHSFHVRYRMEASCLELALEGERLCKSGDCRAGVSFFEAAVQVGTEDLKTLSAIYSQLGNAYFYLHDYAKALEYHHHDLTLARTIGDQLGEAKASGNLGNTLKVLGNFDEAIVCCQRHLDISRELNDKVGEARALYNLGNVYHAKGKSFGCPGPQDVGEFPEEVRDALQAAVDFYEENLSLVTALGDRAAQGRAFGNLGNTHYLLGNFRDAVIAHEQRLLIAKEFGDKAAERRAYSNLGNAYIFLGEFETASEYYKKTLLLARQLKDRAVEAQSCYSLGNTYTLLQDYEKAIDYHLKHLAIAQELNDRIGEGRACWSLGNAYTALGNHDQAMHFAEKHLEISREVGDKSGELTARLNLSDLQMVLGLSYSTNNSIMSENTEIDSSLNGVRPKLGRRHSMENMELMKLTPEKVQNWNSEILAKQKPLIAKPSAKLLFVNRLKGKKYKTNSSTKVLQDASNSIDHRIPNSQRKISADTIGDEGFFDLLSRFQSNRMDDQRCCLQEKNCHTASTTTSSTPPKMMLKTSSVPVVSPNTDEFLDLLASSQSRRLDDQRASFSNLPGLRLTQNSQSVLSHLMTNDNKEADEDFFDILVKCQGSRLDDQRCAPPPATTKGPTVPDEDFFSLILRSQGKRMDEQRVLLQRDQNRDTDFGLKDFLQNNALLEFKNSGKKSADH

LGN^7–367 (human) = molecular target: T4, LGN^7–367 (human); experiment: SEC-MALS; static light scattering (SLS) on a Viscotek GPCmax/TDA with two TSKgel G3000PWxl columns in series; 75 μl of purified sample at about 1.5–2 mg/ml
T4 sequence (P81274 whole entry, looked up): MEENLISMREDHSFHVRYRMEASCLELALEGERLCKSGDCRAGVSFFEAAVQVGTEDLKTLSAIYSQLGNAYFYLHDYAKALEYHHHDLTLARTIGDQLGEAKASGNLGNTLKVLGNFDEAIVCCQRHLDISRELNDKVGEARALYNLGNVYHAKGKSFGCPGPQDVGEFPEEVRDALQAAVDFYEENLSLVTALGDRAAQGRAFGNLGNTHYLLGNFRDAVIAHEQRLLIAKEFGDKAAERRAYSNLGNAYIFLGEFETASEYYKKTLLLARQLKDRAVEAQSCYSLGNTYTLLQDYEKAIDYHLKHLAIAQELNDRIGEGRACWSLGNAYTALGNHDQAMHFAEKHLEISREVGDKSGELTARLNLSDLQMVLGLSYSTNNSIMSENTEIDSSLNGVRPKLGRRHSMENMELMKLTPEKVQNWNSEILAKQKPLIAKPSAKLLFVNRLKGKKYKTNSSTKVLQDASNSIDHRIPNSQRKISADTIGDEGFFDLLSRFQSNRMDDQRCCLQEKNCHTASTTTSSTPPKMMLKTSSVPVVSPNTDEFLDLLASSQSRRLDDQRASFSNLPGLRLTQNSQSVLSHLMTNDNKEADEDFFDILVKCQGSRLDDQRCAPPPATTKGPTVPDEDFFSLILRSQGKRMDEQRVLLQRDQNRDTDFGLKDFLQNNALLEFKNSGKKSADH

αβ-tubulin hetero-dimers = αβ-tubulin hetero-dimers (UniProt P02554 1-445); experiment: SEC; Superdex-200 Increase 3.2/300; 26 µM NuMA^2002–2115 and 20 µM αβ-tubulin hetero-dimers; GT buffer (80 mM PIPES pH 6.8, 1 mM MgCl2, 1 mM EGTA) with 60 mM NaCl and 1 mM DTT; Tris-Tricine-SDS-PAGE; settings: both partners purified
Sequence of αβ-tubulin hetero-dimers (P68363 whole entry, chain 1 of 2): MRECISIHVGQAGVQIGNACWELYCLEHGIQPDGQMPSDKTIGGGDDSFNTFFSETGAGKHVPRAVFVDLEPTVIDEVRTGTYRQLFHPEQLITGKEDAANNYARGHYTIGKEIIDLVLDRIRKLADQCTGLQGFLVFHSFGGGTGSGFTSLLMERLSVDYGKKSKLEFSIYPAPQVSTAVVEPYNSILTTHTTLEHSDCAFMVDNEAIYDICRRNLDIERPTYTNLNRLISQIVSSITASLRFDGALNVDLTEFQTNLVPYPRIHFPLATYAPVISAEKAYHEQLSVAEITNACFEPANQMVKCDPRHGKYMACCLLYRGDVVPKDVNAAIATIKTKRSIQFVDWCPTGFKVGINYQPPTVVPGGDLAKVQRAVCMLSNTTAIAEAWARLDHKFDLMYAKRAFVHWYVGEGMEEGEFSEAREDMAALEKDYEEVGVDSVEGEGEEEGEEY
Sequence of αβ-tubulin hetero-dimers (P02554 whole entry, chain 2 of 2): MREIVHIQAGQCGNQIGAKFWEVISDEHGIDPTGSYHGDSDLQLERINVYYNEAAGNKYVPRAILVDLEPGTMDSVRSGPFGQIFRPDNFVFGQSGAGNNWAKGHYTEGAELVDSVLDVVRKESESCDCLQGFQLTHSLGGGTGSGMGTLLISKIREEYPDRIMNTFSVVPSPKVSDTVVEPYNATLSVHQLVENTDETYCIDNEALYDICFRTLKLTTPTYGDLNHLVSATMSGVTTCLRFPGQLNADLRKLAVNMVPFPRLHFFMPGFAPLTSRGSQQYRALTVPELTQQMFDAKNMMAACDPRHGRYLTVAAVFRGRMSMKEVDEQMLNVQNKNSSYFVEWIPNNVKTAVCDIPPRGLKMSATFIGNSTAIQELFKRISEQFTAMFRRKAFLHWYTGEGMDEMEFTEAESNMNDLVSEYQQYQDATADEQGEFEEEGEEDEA

NSFYMGTCQDEPEQLDDWNRIAELQQRNR [NuMA^1900–1928]
stoichiometry N [1]: 1

B1: NuMA chimera (NuMA 1592–1694 joined to NuMA 1821–2001 by eight Thr-Gly-Ser repeats) (domain or fragment, human)
chain: QLNELQAQLSQKEQAAEHYKLQMEKAKTHYDAKKQQNQELQEQLRSLEQLQKENKELRAEAERLGHELQQAGLKTKEAEQTCRHLTAQVRSLEAQVAHADQQLTGSTGSTGSTGSTGSTGSTGSTGSKKLDVEEPDSANSSFYSTRSAPASQASLRATSSTQSLARLGSPDYGNSALLSLPGYRPTTRSSARRSQAGVSSGAPPGRNSFYMGTCQDEPEQLDDWNRIAELQQRNRVCPPHLKTCYPLESRPSLSLGTITDEEMKTGDPQETLRRASMQPIQIAEGTGITTRQQRKRVSLEPHQGPGTP
notes: NuMA, human, residues 1592-1694 (dimerizing coiled-coil); also called chimeric NuMA construct; source: E. coli BL21 Rosetta, purified (Ni HiTrap chelating, PreScission cleavage, Resource-Q, Superose-6)
stoichiometry N [2]: 1 | stoichiometry N [3]: 2

B2: NuMA^1861–1928 (domain or fragment)
chain: GSPDYGNSALLSLPGYRPTTRSSARRSQAGVSSGAPPGRNSFYMGTCQDEPEQLDDWNRIAELQQRNR
stoichiometry N (LGN^13–409 (human)): 1 | stoichiometry N (LGN^1–350 (human)): 1 | stoichiometry N (LGN^7–367 (human)): 1

B3: NuMA^1592–1694 (domain or fragment, human, UniProt Q14980 1592-1694, looked up)
chain: QLNELQAQLSQKEQAAEHYKLQMEKAKTHYDAKKQQNQELQEQLRSLEQLQKENKELRAEAERLGHELQQAGLKTKEAEQTCRHLTAQVRSLEAQVAHADQQL
notes: NuMA, human, residues 1592-1694 (C-terminal portion of the coiled coil); also called C-terminal part of the NuMA coiled-coil
stoichiometry N [3]: 2

B4: NuMA^2002–2115 (domain or fragment, human, UniProt Q14980 2002-2115, looked up)
chain: ESKKATSCFPRPMTPRDRHEGRKQSTTEAQKKAAPASTKQADRRQSMAFSILNTPKKLGNSLLRRGASKKALSKASPNTRSGTRRSPRIATTTASAATAAAIGATPRAKGKAKH
stoichiometry N (αβ-tubulin hetero-dimers): 1
